# Test results taken from the supplement of paper PMC7877785.
# ± gives the uncertainty stated by the source.
# Assay: self-splicing fitness, log relative to wild type (ln ratio); higher = more splicing; Tetrahymena group I intron in knt gene, E. coli kanamycin selection, DiMSum; sequences stand for … in CUCUCU…GGAGGGAAAAGUUAUCAGGCAUGCACCUGGUAGCUAGUCUUUAAACCAAUAGAUUGCAUCGGUUUAAAAGGCAAGACCGUCAAAUUGCGGGAAAGGGGUCAACAGCCGUUCAGUACCAAGUCUCAGGGGAAACUUUGAGAUGGCCUUGCAAAGGGUAUGGUAAUAAGCUGACGGACAUGGUCCUAACCACGCAGCCAAGUCCUAAGUCAACAGAUCUUCUGUUGAUAUGGAUGCAGUUCACAGACUAAAUGUCGGUCGGGGAAGAUGUAUUCUUCUCAUAAGAUAUAGUCGGACCUCUCCUUAAUGGGAGCUAGCGGAUGAAGUGAUGCAACACUGGAGCCGCUGGGAACUAAUUUGUAUGCGAAAGUAUAUUGAUUAGUUUUGGAGUACUCGUGGUCG
# Procedure, shortened: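 Six replicate transformations of E. coli BL21(DE3) with a pET-22b(+) library were grown overnight at 37°C or 30°C. The library randomised all eight P1ex-region intron nucleotides, the intron lying in the knt kanamycin-resistance gene, and plates were LB agar with or without 25 μg/mL kanamycin plus 100 μg/mL carbenicillin, 50 μM IPTG and 0.2% rhamnose. Pooled colonies were amplicon-sequenced on an Illumina HiSeq 2500, and fitness is the DiMSum error-weighted combination of wild-type-normalised replicate fold changes, kanamycin versus none.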
Sequence,self-splicing fitness (ln) (30 °C),self-splicing fitness (ln) (37 °C)
GCCGAGCAAUAUUACGAAAU,-3.1 ± 0.39,-1.62 ± 0.41
UAUCAGCAAUAUUACGUUAG,-1.22 ± 0.095,-1.03 ± 0.094
UUUUAGCAAUAUUACGGUGC,-3.63 ± 0.24,-2.98 ± 0.38
ACCCAGCAAUAUUACGUUCG,-3.74 ± 0.14,-1.26 ± 0.088
CACUAGCAAUAUUACGAAUA,-3.16 ± 0.37,-2.33 ± 0.18
UUAUAGCAAUAUUACGUUGA,-2.54 ± 0.42,-1.58 ± 0.27
GAGUAGCAAUAUUACGCGUC,-1.36 ± 0.21,-1.26 ± 0.22
GGCAAGCAAUAUUACGCGAG,-2.32 ± 0.14,-3.34 ± 0.24
ACCUAGCAAUAUUACGCCCU,-0.142 ± 0.12,-0.462 ± 0.14
UGCCAGCAAUAUUACGUGAU,-2.59 ± 0.14,-1.6 ± 0.099
CUACAGCAAUAUUACGUGCG,-1.75 ± 0.081,-0.715 ± 0.089
AAGUAGCAAUAUUACGUAGU,-3.59 ± 0.19,-2.32 ± 0.21
UGAAAGCAAUAUUACGCCGA,-1.61 ± 0.14,-0.339 ± 0.14
UCGCAGCAAUAUUACGCUCG,-3.23 ± 0.28,-1.61 ± 0.2
GAUCAGCAAUAUUACGUCGA,-1.35 ± 0.084,-0.202 ± 0.096
UUACAGCAAUAUUACGUCAA,-1.14 ± 0.082,-0.187 ± 0.081
GUUUAGCAAUAUUACGGUAU,-2.05 ± 0.14,0.286 ± 0.15
CGUGAGCAAUAUUACGAGAA,-3.1 ± 0.34,-2.08 ± 0.24
GCCAAGCAAUAUUACGUGUA,-1.41 ± 0.068,-0.64 ± 0.062

Sequence,self-splicing fitness (ln) (30 °C),self-splicing fitness (ln) (37 °C)
CAUGAGCAAUAUUACGGGCA,-2.43 ± 0.18,-2.21 ± 0.28
ACCCAGCAAUAUUACGUGCC,-1.98 ± 0.08,-0.963 ± 0.1
CCGAAGCAAUAUUACGCGGG,-3.3 ± 0.19,-2.62 ± 0.24
ACGAAGCAAUAUUACGUCCU,-0.493 ± 0.083,-0.288 ± 0.11
CGAUAGCAAUAUUACGGGUU,-3.84 ± 0.21,-3.04 ± 0.24
GCAUAGCAAUAUUACGUGGU,-3.13 ± 0.14,-2.8 ± 0.15
AUCUAGCAAUAUUACGGAUA,-3 ± 0.46,-2.05 ± 0.26
UUAUAGCAAUAUUACGCUCU,-2.68 ± 0.37,-0.705 ± 0.46
UCUUAGCAAUAUUACGAGGC,-3.01 ± 0.46,
ACCUAGCAAUAUUACGUCUC,-1.59 ± 0.096,-0.658 ± 0.14
UCGAAGCAAUAUUACGGUAU,-3.58 ± 0.16,-1.73 ± 0.14
UCCUAGCAAUAUUACGUGCG,-3.5 ± 0.2,-1.98 ± 0.16
UCCCAGCAAUAUUACGCUGU,-3.99 ± 0.23,-2.18 ± 0.23
UACUAGCAAUAUUACGCUGG,-4.47 ± 0.39,-1.78 ± 0.24
UUUCAGCAAUAUUACGCCUC,,-1.38 ± 0.41
AUGUAGCAAUAUUACGUCAG,-3.5 ± 0.18,-2.25 ± 0.16
AACGAGCAAUAUUACGUUGU,-3.8 ± 0.098,-3.3 ± 0.13
CCCGAGCAAUAUUACGUCCC,-2.8 ± 0.24,-2.3 ± 0.49
CGCGAGCAAUAUUACGGGCA,-0.464 ± 0.084,-0.0497 ± 0.11
